Laboratory results from patent US20090246191A1.

Assays:
[1] = target: Aβ40 monomer (wild-type amyloid β peptide 1-40) (Artificial)
[2] = target: LC (Jto) fibrils, formed from recombinant Vλ6 Jto; test: EuLISA, plate-immobilised LC fibrils
[3] = target: soluble cross-linked β-amyloid protein species (CAPS) prepared from Aβ40 (Artificial); test: EuLISA, plate-immobilised CAPS
[4] = target: Aβ40 monomer (wild-type amyloid β peptide 1-40) (Artificial); test: EuLISA, plate-immobilised wild-type Aβ40 monomer
[5] = target: Aβ40 fibrils (Artificial); test: EuLISA, plate-immobilised Aβ40 fibrils
[6] = target: F19P Aβ40 monomer (Artificial); test: EuLISA, plate-immobilised F19P Aβ40 monomer (value in brackets)

Substance: ImmunoPure Horseradish peroxidase (HRP) (from UniProt P00433) (enzyme)
- formation of SDS stable cross-linked Aβ40 oligomers (SDS PAGE) [1]: 65%

Substance: unfractionated IGIV (Gammagard Liquid, human immune globulin intravenous) (polyclonal serum or antibody)
- EC50 [2]: 1510 nM
- EC50 [3]: 631 nM
- EC50 [4]: 861 nM
- EC50 [5]: 1080 nM
- EC50 [6]: 3670 nM
